First the molecules themselves.
B1: Q13885 (protein, UniProt Q13885 1-445, looked up)
chain: MREIVHIQAGQCGNQIGAKFWEVISDEHGIDPTGSYHGDSDLQLERINVYYNEAAGNKYVPRAILVDLEPGTMDSVRSGPFGQIFRPDNFVFGQSGAGNNWAKGHYTEGAELVDSVLDVVRKESESCDCLQGFQLTHSLGGGTGSGMGTLLISKIREEYPDRIMNTFSVMPSPKVSDTVVEPYNATLSVHQLVENTDETYSIDNEALYDICFRTLKLTTPTYGDLNHLVSATMSGVTTCLRFPGQLNADLRKLAVNMVPFPRLHFFMPGFAPLTSRGSQQYRALTVPELTQQMFDSKNMMAACDPRHGRYLTVAAIFRGRMSMKEVDEQMLNVQNKNSSYFVEWIPNNVKTAVCDIPPRGLKMSATFIGNSTAIQELFKRISEQFTAMFRRKAFLHWYTGEGMDEMEFTEAESNMNDLVSEYQQYQDATADEQGEFEEEEGEDEA
modifications: full-length
B2: Q9BUF5 (protein, UniProt Q9BUF5 1-446, looked up)
chain: MREIVHIQAGQCGNQIGTKFWEVISDEHGIDPAGGYVGDSALQLERINVYYNESSSQKYVPRAALVDLEPGTMDSVRSGPFGQLFRPDNFIFGQTGAGNNWAKGHYTEGAELVDAVLDVVRKECEHCDCLQGFQLTHSLGGGTGSGMGTLLISKIREEFPDRIMNTFSVMPSPKVSDTVVEPYNATLSVHQLVENTDETYCIDNEALYDICFRTLKLTTPTYGDLNHLVSATMSGVTTSLRFPGQLNADLRKLAVNMVPFPRLHFFMPGFAPLTSRGSQQYRALTVPELTQQMFDARNMMAACDPRHGRYLTVATVFRGPMSMKEVDEQMLAIQSKNSSYFVEWIPNNVKVAVCDIPPRGLKMASTFIGNSTAIQELFKRISEQFSAMFRRKAFLHWFTGEGMDEMEFTEAESNMNDLVSEYQQYQDATANDGEEAFEDEEEEIDG
modifications: full-length
B3: P68366 (protein, UniProt P68366 1-448, looked up)
chain: MRECISVHVGQAGVQMGNACWELYCLEHGIQPDGQMPSDKTIGGGDDSFTTFFCETGAGKHVPRAVFVDLEPTVIDEIRNGPYRQLFHPEQLITGKEDAANNYARGHYTIGKEIIDPVLDRIRKLSDQCTGLQGFLVFHSFGGGTGSGFTSLLMERLSVDYGKKSKLEFSIYPAPQVSTAVVEPYNSILTTHTTLEHSDCAFMVDNEAIYDICRRNLDIERPTYTNLNRLISQIVSSITASLRFDGALNVDLTEFQTNLVPYPRIHFPLATYAPVISAEKAYHEQLSVAEITNACFEPANQMVKCDPRHGKYMACCLLYRGDVVPKDVNAAIAAIKTKRSIQFVDWCPTGFKVGINYQPPTVVPGGDLAKVQRAVCMLSNTTAIAEAWARLDHKFDLMYAKRAFVHWYVGEGMEEGEFSEAREDMAALEKDYEEVGIDSYEDEDEGEE
modifications: full-length
B4: P07437 (protein, UniProt P07437 1-444, looked up)
chain: MREIVHIQAGQCGNQIGAKFWEVISDEHGIDPTGTYHGDSDLQLDRISVYYNEATGGKYVPRAILVDLEPGTMDSVRSGPFGQIFRPDNFVFGQSGAGNNWAKGHYTEGAELVDSVLDVVRKEAESCDCLQGFQLTHSLGGGTGSGMGTLLISKIREEYPDRIMNTFSVVPSPKVSDTVVEPYNATLSVHQLVENTDETYCIDNEALYDICFRTLKLTTPTYGDLNHLVSATMSGVTTCLRFPGQLNADLRKLAVNMVPFPRLHFFMPGFAPLTSRGSQQYRALTVPELTQQVFDAKNMMAACDPRHGRYLTVAAVFRGRMSMKEVDEQMLNVQNKNSSYFVEWIPNNVKTAVCDIPPRGLKMAVTFIGNSTAIQELFKRISEQFTAMFRRKAFLHWYTGEGMDEMEFTEAESNMNDLVSEYQQYQDATAEEEEDFGEEAEEEA
modifications: full-length
B5: Q14247 (protein, UniProt Q14247 1-550, looked up)
chain: MWKASAGHAVSIAQDDAGADDWETDPDFVNDVSEKEQRWGAKTVQGSGHQEHINIHKLRENVFQEHQTLKEKELETGPKASHGYGGKFGVEQDRMDKSAVGHEYQSKLSKHCSQVDSVRGFGGKFGVQMDRVDQSAVGFEYQGKTEKHASQKDYSSGFGGKYGVQADRVDKSAVGFDYQGKTEKHESQRDYSKGFGGKYGIDKDKVDKSAVGFEYQGKTEKHESQKDYVKGFGGKFGVQTDRQDKCALGWDHQEKLQLHESQKDYKTGFGGKFGVQSERQDSAAVGFDYKEKLAKHESQQDYSKGFGGKYGVQKDRMDKNASTFEDVTQVSSAYQKTVPVEAVTSKTSNIRANFENLAKEKEQEDRRKAEAERAQRMAKERQEQEEARRKLEEQARAKTQTPPVSPAPQPTEERLPSSPVYEDAASFKAELSYRGPVSGTEPEPVYSMEAADYREASSQQGLAYATEAVYESAEAPGHYPAEDSTYDEYENDLGITAVALYDYQAAGDDEISFDPDDIITNIEMIDDGWWRGVCKGRYGLFPANYVELRQ
modifications: full-length
B6: O75083 (protein, UniProt O75083 1-606, looked up)
chain: MPYEIKKVFASLPQVERGVSKIIGGDPKGNNFLYTNGKCVILRNIDNPALADIYTEHAHQVVVAKYAPSGFYIASGDVSGKLRIWDTTQKEHLLKYEYQPFAGKIKDIAWTEDSKRIAVVGEGREKFGAVFLWDSGSSVGEITGHNKVINSVDIKQSRPYRLATGSDDNCAAFFEGPPFKFKFTIGDHSRFVNCVRFSPDGNRFATASADGQIYIYDGKTGEKVCALGGSKAHDGGIYAISWSPDSTHLLSASGDKTSKIWDVSVNSVVSTFPMGSTVLDQQLGCLWQKDHLLSVSLSGYINYLDRNNPSKPLHVIKGHSKSIQCLTVHKNGGKSYIYSGSHDGHINYWDSETGENDSFAGKGHTNQVSRMTVDESGQLISCSMDDTVRYTSLMLRDYSGQGVVKLDVQPKCVAVGPGGYAVVVCIGQIVLLKDQRKCFSIDNPGYEPEVVAVHPGGDTVAIGGVDGNVRLYSILGTTLKDEGKLLEAKGPVTDVAYSHDGAFLAVCDASKVVTVFSVADGYSENNVFYGHHAKIVCLAWSPDNEHFASGGMDMMVYVWTLSDPETRVKIQDAHRLHHVSSLAWLDEHTLVTTSHDASVKEWTITY
modifications: full-length
B7: Q13409 (protein, UniProt Q13409 1-638, looked up)
chain: MSDKSELKAELERKKQRLAQIREEKKRKEEERKKKETDQKKEAVAPVQEESDLEKKRREAEALLQSMGLTPESPIVFSEYWVPPPMSPSSKSVSTPSEAGSQDSGDGAVGSRTLHWDTDPSVLQLHSDSDLGRGPIKLGMAKITQVDFPPREIVTYTKETQTPVMAQPKEDEEEDDDVVAPKPPIEPEEEKTLKKDEENDSKAPPHELTEEEKQQILHSEEFLSFFDHSTRIVERALSEQINIFFDYSGRDLEDKEGEIQAGAKLSLNRQFFDERWSKHRVVSCLDWSSQYPELLVASYNNNEDAPHEPDGVALVWNMKYKKTTPEYVFHCQSAVMSATFAKFHPNLVVGGTYSGQIVLWDNRSNKRTPVQRTPLSAAAHTHPVYCVNVVGTQNAHNLISISTDGKICSWSLDMLSHPQDSMELVHKQSKAVAVTSMSFPVGDVNNFVVGSEEGSVYTACRHGSKAGISEMFEGHQGPITGIHCHAAVGAVDFSHLFVTSSFDWTVKLWTTKNNKPLYSFEDNADYVYDVMWSPTHPALFACVDGMGRLDLWNLNNDTEVPTASISVEGNPALNRVRWTHSGREIAVGDSEGQIVIYDVGEQIAVPRNDEWARFGRTLAEINANRADAEEEAATRIPA
modifications: full-length
B8: SF3B3 (protein)
chain: MFLYNLTLQRATGISFAIHGNFSGTKQQEIVVSRGKILELLRPDPNTGKVHTLLTVEVFGVIRSLMAFRLTGGTKDYIVVGSDSGRIVILEYQPSKNMFEKIHQETFGKSGCRRIVPGQFLAVDPKGRAVMISAIEKQKLVYILNRDAAARLTISSPLEAHKANTLVYHVVGVDVGFENPMFACLEMDYEEADNDPTGEAAANTQQTLTFYELDLGLNHVVRKYSEPLEEHGNFLITVPGGSDGPSGVLICSENYITYKNFGDQPDIRCPIPRRRNDLDDPERGMIFVCSATHKTKSMFFFLAQTEQGDIFKITLETDEDMVTEIRLKYFDTVPVAAAMCVLKTGFLFVASEFGNHYLYQIAHLGDDDEEPEFSSAMPLEEGDTFFFQPRPLKNLVLVDELDSLSPILFCQIADLANEDTPQLYVACGRGPRSSLRVLRHGLEVSEMAVSELPGNPNAVWTVRRHIEDEFDAYIIVSFVNATLVLSIGETVEEVTDSGFLGTTPTLSCSLLGDDALVQVYPDGIRHIRADKRVNEWKTPGKKTIVKCAVNQRQVVIALTGGELVYFEMDPSGQLNEYTERKEMSADVVCMSLANVPPGEQRSRFLAVGLVDNTVRIISLDPSDCLQPLSMQALPAQPESLCIVEMGGTEKQDELGERGSIGFLYLNIGLQNGVLLRTVLDPVTGDLSDTRTRYLGSRPVKLFRVRMQGQEAVLAMSSRSWLSYSYQSRFHLTPLSYETLEFASGFASEQCPEGIVAISTNTLRILALEKLGAVFNQVAFPLQYTPRKFVIHPESNNLIIIETDHNAYTEATKAQRKQQMAEEMVEAAGEDERELAAEMAAAFLNENLPESIFGAPKAGNGQWASVIRVMNPIQGNTLDLVQLEQNEAAFSVAVCRFSNTGEDWYVLVGVAKDLILNPRSVAGGFVYTYKLVNNGEKLEFLHKTPVEEVPAAIAPFQGRVLIGVGKLLRVYDLGKKKLLRKCENKHIANYISGIQTIGHRVIVSDVQESFIWVRYKRNENQLIIFADDTYPRWVTTASLLDYDTVAGADKFGNICVVRLPPNTNDEVDEDPTGNKALWDRGLLNGASQKAEVIMNYHVGETVLSLQKTTLIPGGSESLVYTTLSGGIGILVPFTSHEDHDFFQHVEMHLRSEHPPLCGRDHLSFRSYYFPVKNVIDGDLCEQFNSMEPNKQKNVSEELDRTPPEVSKKLEDIRTRYAF

Consider eight molecules from patent publication US20250339531A1, “DUX4 POLYPEPTIDES AND NUCLEIC ACIDS FOR TREATING INFLAMMATORY AND AUTOIMMUNE CONDITIONS” (Fred Hutchinson Cancer Center, priority 2021, published 2025).

The subject of one assay is proteins that co-immunoprecipitated with DUX4-CTD constructs expressed in MB135 myoblasts. Nature of the assay: LC-MS of proteins co-immunoprecipitated with DUX4-CTD (Table 1) and western validation. The format is binding, human. Also noted: key to 4. mL1dL2 + Dox + IFNG / 4. + IFNG mix / 4. longCTD + Dox + IFNG / 3. + IFNg + Dox longCTD / 3. + Dox longCTD / 3. + IFNG longCTD: peptide-spectrum matches (PSMs) per protein. Conditions: LC-MS counts of the listed protein co-immunoprecipitated with DUX4-CTD bait longCTD; experiment 4, Dox + IFNG. Put shortly:
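FLAG-tagged DUX4-CTD expressed in doxycycline-induced MB135 myoblasts, some also IFNG-treated; nuclear lysates in pH 7.4 NP-40 IP buffer were pre-cleared, then anti-FLAG immunoprecipitated 3 h at 4 °C. For LC-MS, FLAG-peptide elution, in-gel trypsin digest, Orbitrap analysis; proteins with ≥2 PSMs in both experiments categorised and ranked by total PSMs.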
Take B1: the “4. longCTD + Dox + IFNG” value came out at 99.

For B2, the “4. longCTD + Dox + IFNG” value is listed as 46.

With B3, the “4. longCTD + Dox + IFNG” value was found to be 16.

B4: the “4. longCTD + Dox + IFNG” value is recorded as 110.

Turning to B5, the “4. longCTD + Dox + IFNG” value worked out at 5.

With B6, the “4. longCTD + Dox + IFNG” value turned out to be 11.

On to B7, for which the “4. longCTD + Dox + IFNG” value was 4.

The same assay, now with this note: LC-MS value per protein co-immunoprecipitated with DUX4-CTD construct mL1dL2 in MB135 myoblasts; + Dox + IFNG; kind of count not given.
Turning to B8, the “4. mL1dL2 + Dox + IFNG” value is given as 10.

Still in this assay, the particulars now being: bait longCTD; experiment 3, Dox only.
As to B1, the “3. + Dox longCTD” value was 35.

Turning to B2, the “3. + Dox longCTD” value stood at 20.

As to B3, the “3. + Dox longCTD” value worked out at 14.

Consider B4, for which the “3. + Dox longCTD” value is on record as 41.

For B6, the “3. + Dox longCTD” value came out at 1.

The same assay, now with this note: bait longCTD; experiment 3, IFNG only, no doxycycline (bait at background level).
In the case of B1, the “3. + IFNG longCTD” value stood at 13.

For the molecule B4, the “3. + IFNG longCTD” value is listed as 14.

Staying with this assay, now noted: bait longCTD; experiment 3, IFNg + Dox.
In the case of B1, the “3. + IFNg + Dox longCTD” value is on record as 61.

Turning to B2, the “3. + IFNg + Dox longCTD” value turned out to be 39.

For the molecule B3, the “3. + IFNg + Dox longCTD” value is recorded as 39.

Consider B4, for which the “3. + IFNg + Dox longCTD” value was 75.

On to B5, for which the “3. + IFNg + Dox longCTD” value amounted to 1.

As for B6, the “3. + IFNg + Dox longCTD” value was 2.

For B7, the “3. + IFNg + Dox longCTD” value stood at 1.

The assay is the same for the next values; noted with them: sum over all samples.
On to B1, for which the “SUM of PSMS” value is listed as 208.

In the case of B2, the “SUM of PSMS” value worked out at 128.

Consider B3, for which the “SUM of PSMS” value was 69.

Regarding B4, the “SUM of PSMS” value is reported as 315.

On to B5, for which the “SUM of PSMS” value stood at 6.

On to B6, for which the “SUM of PSMS” value is 16.

Turning to B7, the “SUM of PSMS” value is 5.
